Source: paper PMC6420652

Tests used:
AZIN (Homo sapiens) = AZIN (Homo sapiens) (UniProt O14977); test: ultracentrifugation; settings: cited from earlier work
[1] = target: antizyme-mRuby2 (antizyme with a C-terminal mRuby2 tag) (UniProt P54368); test: FRET titration; settings: parent: est. 24; read off a plot
antizyme-mRuby2 (antizyme with a C-terminal mRuby2 tag), sequence (P54368 whole entry): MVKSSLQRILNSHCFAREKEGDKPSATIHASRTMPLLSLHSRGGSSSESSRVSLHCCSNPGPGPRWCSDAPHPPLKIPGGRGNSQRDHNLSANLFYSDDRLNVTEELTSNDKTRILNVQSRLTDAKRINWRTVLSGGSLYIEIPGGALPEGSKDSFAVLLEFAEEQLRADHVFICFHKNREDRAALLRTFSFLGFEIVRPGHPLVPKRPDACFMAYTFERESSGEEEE

AZIN (Homo sapiens), sequence (O14977 whole entry): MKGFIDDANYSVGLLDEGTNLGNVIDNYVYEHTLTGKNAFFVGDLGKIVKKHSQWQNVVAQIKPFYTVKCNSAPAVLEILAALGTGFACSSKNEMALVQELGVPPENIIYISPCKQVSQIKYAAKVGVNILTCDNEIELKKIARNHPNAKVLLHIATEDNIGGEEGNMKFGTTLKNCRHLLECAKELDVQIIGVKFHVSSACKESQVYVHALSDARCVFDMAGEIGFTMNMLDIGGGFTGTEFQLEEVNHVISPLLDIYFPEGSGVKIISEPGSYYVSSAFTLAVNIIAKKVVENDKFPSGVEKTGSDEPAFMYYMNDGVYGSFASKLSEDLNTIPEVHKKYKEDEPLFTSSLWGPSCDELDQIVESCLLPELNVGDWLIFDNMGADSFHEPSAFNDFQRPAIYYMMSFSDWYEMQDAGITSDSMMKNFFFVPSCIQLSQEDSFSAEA
Clover-AZIN (antizyme inhibitor with an N-terminal Clover tag), sequence (O14977 whole entry, stated change not applied): as the sequence (O14977 whole entry) above
Antizyme, sequence (P54368 whole entry): as the sequence (P54368 whole entry) above

| Kd [1] [nM] | Substance | Kd (AZIN (Homo sapiens)) [nM] |
| --- | --- | --- |
|  | Antizyme (from UniProt P54368) | 20 |
| 11 | Clover-AZIN (antizyme inhibitor with an N-terminal Clover tag) (from UniProt O14977) V137A |  |
